According to the supplement of paper PMC10065799, “High-throughput profiling of sequence recognition by tyrosine kinases and SH2 domains using bacterial peptide display” (eLife, 2023):

system: Fer (mouse); assay: phosphorylation enrichment, bacterial display (enrichment ratio); higher = better substrate or ligand; peptides without Tyr show the background
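Note: 11-residue human phosphosite peptides and single-mutation variants displayed on the E. coli surface, counted by deep sequencing, each peptide's frequency after selection divided by its frequency in the unselected input library; frequency after pTyr selection over input frequency; kinase dosed for 20-30% of maximal phosphorylation in three min.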

Sequence | phosphorylation enrichment
VEDHDYEGGIG [TKT_Y564_Y563D] | 0.602
RGKDSYETSKL [SPP1_Y225_Q229K] | 0.699
ARSHIYTFSSC [MEFV_Y741_A744S] | 0.497
QLPRGYISIPV [BAG3_Y205] | 0.642
NKVFTYIFIME [SCN4A_Y1074_D1069N] | 0.589
YMKEPYIQSRF [HIPK4_Y175_V171M] | 0.488
KDHPDYKFQAR [SOX10_Y171_P175A_YF] | 0.485
CEHRGSLFLAI [TEK_Y897_Y897S_YF] | 0.533
GRPLFYWLTGC [LYZL6_Y140] | 0.418
MSRNLYSGDCF [DDR2_Y736_Y740C_YF] | 0.911
RGLQVYHRRNA [LRP2_Y2010] | 0.803
EEVPLYESATT [DCC_Y809_G805E] | 6.01
ACCLLYCGDVV [TUBA4A_Y319_R320C] | 3.7
KVMANYVYKAG [MAML2_Y513_M514V] | 0.358
VLTSKYRGGGG [HBA1_Y141] | 0.374
TVHCDYLNIPH [TAF1L_Y1385] | 0.46
CSEEMYRLMLQ [RET_Y981] | 0.619
PSQRRNVYYYS [PTEN_Y174_Y174N] | 0.568
EQKKFYNAMKK [SCN5A_Y1495_YF] | 0.34
FDGGCYEQLFV [MC4R_Y41_S36Y_YF] | 10.7
QFQEKYKQVEQ [HCN4_Y531_YF] | 0.63
APAHKYHGGGG [HBD_Y146_L142P] | 0.329
GRRNTYFASIA [ACADM_Y352_YF] | 0.481
TVFSDYLHPQY [CCPG1_Y569] | 0.398
KKCTRYIDCDR [ASPA_Y64_L69R] | 0.406
TILEHYRRTHC [MYBPC3_Y1119_V1115I] | 0.439
LSVEIYDRREF [ITGB7_Y753_YF] | 0.595
DEGVNYFMSKG [FBXO8_Y156] | 0.402
LLSISYVGCSL [ADGRD1_Y571_S567L] | 1.01

system: c-Abl (mouse); assay: as above

Sequence | phosphorylation enrichment
VEDHDYEGGIG [TKT_Y564_Y563D] | 1.01
RGKDSYETSKL [SPP1_Y225_Q229K] | 1.49
ARSHIYTFSSC [MEFV_Y741_A744S] | 0.578
QLPRGYISIPV [BAG3_Y205] | 0.867
NKVFTYIFIME [SCN4A_Y1074_D1069N] | 0.99
YMKEPYIQSRF [HIPK4_Y175_V171M] | 0.632
KDHPDYKFQAR [SOX10_Y171_P175A_YF] | 0.626
CEHRGSLFLAI [TEK_Y897_Y897S_YF] | 0.944
GRPLFYWLTGC [LYZL6_Y140] | 0.713
MSRNLYSGDCF [DDR2_Y736_Y740C_YF] | 0.739
RGLQVYHRRNA [LRP2_Y2010] | 0.957
EEVPLYESATT [DCC_Y809_G805E] | 1.04
ACCLLYCGDVV [TUBA4A_Y319_R320C] | 1.29
KVMANYVYKAG [MAML2_Y513_M514V] | 0.453
VLTSKYRGGGG [HBA1_Y141] | 0.494
TVHCDYLNIPH [TAF1L_Y1385] | 0.521
CSEEMYRLMLQ [RET_Y981] | 0.947
PSQRRNVYYYS [PTEN_Y174_Y174N] | 0.47
EQKKFYNAMKK [SCN5A_Y1495_YF] | 0.52
FDGGCYEQLFV [MC4R_Y41_S36Y_YF] | 0.748
QFQEKYKQVEQ [HCN4_Y531_YF] | 0.913
APAHKYHGGGG [HBD_Y146_L142P] | 0.616
GRRNTYFASIA [ACADM_Y352_YF] | 0.588
TVFSDYLHPQY [CCPG1_Y569] | 0.785
KKCTRYIDCDR [ASPA_Y64_L69R] | 0.72
TILEHYRRTHC [MYBPC3_Y1119_V1115I] | 0.609
LSVEIYDRREF [ITGB7_Y753_YF] | 0.569
DEGVNYFMSKG [FBXO8_Y156] | 0.705
LLSISYVGCSL [ADGRD1_Y571_S567L] | 1.45

biological target: MERTK (UniProt Q12866); assay: as above
Sequence (Q12866 whole entry, looked up): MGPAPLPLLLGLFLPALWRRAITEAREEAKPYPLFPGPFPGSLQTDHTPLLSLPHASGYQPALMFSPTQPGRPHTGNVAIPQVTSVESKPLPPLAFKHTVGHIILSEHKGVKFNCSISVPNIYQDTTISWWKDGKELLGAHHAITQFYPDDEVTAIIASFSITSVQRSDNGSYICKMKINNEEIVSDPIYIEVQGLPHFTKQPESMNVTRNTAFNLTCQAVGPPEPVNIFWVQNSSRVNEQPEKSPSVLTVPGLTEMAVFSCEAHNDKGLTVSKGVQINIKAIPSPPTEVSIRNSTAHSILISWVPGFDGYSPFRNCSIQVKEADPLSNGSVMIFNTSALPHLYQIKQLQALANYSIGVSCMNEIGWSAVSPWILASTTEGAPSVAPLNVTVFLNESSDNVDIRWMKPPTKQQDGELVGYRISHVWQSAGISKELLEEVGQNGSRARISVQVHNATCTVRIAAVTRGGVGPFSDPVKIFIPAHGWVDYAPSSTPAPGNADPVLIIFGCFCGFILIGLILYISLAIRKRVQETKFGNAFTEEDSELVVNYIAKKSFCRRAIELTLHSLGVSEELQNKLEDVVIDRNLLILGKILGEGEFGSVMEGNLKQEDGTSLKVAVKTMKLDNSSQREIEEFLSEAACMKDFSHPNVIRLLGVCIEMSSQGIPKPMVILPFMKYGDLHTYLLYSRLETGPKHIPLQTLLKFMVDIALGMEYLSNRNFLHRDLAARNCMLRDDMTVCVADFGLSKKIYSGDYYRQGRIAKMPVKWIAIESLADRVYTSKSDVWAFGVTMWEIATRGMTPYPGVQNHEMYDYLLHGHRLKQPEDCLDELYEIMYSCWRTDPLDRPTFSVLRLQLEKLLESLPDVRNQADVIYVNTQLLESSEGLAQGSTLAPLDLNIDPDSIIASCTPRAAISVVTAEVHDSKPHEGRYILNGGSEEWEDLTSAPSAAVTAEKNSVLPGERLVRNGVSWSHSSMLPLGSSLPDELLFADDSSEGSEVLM

Sequence | phosphorylation enrichment
VEDHDYEGGIG [TKT_Y564_Y563D] | 0.517
RGKDSYETSKL [SPP1_Y225_Q229K] | 0.62
ARSHIYTFSSC [MEFV_Y741_A744S] | 0.62
QLPRGYISIPV [BAG3_Y205] | 0.612
NKVFTYIFIME [SCN4A_Y1074_D1069N] | 0.419
YMKEPYIQSRF [HIPK4_Y175_V171M] | 0.659
KDHPDYKFQAR [SOX10_Y171_P175A_YF] | 0.405
CEHRGSLFLAI [TEK_Y897_Y897S_YF] | 0.422
GRPLFYWLTGC [LYZL6_Y140] | 0.469
MSRNLYSGDCF [DDR2_Y736_Y740C_YF] | 5.87
RGLQVYHRRNA [LRP2_Y2010] | 1.2
EEVPLYESATT [DCC_Y809_G805E] | 0.601
ACCLLYCGDVV [TUBA4A_Y319_R320C] | 4.54
KVMANYVYKAG [MAML2_Y513_M514V] | 0.361
VLTSKYRGGGG [HBA1_Y141] | 0.556
TVHCDYLNIPH [TAF1L_Y1385] | 0.442
CSEEMYRLMLQ [RET_Y981] | 0.573
PSQRRNVYYYS [PTEN_Y174_Y174N] | 4.42
EQKKFYNAMKK [SCN5A_Y1495_YF] | 0.379
FDGGCYEQLFV [MC4R_Y41_S36Y_YF] | 0.875
QFQEKYKQVEQ [HCN4_Y531_YF] | 0.559
APAHKYHGGGG [HBD_Y146_L142P] | 0.549
GRRNTYFASIA [ACADM_Y352_YF] | 0.466
TVFSDYLHPQY [CCPG1_Y569] | 0.417
KKCTRYIDCDR [ASPA_Y64_L69R] | 0.461
TILEHYRRTHC [MYBPC3_Y1119_V1115I] | 0.59
LSVEIYDRREF [ITGB7_Y753_YF] | 0.522
DEGVNYFMSKG [FBXO8_Y156] | 0.39
LLSISYVGCSL [ADGRD1_Y571_S567L] | 0.761

system: c-Src; assay: as above

Sequence | phosphorylation enrichment
VEDHDYEGGIG [TKT_Y564_Y563D] | 0.624
RGKDSYETSKL [SPP1_Y225_Q229K] | 0.571
ARSHIYTFSSC [MEFV_Y741_A744S] | 1.15
QLPRGYISIPV [BAG3_Y205] | 0.592
NKVFTYIFIME [SCN4A_Y1074_D1069N] | 0.487
YMKEPYIQSRF [HIPK4_Y175_V171M] | 0.563
KDHPDYKFQAR [SOX10_Y171_P175A_YF] | 0.489
CEHRGSLFLAI [TEK_Y897_Y897S_YF] | 0.457
GRPLFYWLTGC [LYZL6_Y140] | 0.33
MSRNLYSGDCF [DDR2_Y736_Y740C_YF] | 1.93
RGLQVYHRRNA [LRP2_Y2010] | 1.49
EEVPLYESATT [DCC_Y809_G805E] | 1.09
ACCLLYCGDVV [TUBA4A_Y319_R320C] | 4.33
KVMANYVYKAG [MAML2_Y513_M514V] | 0.355
VLTSKYRGGGG [HBA1_Y141] | 0.435
TVHCDYLNIPH [TAF1L_Y1385] | 0.718
CSEEMYRLMLQ [RET_Y981] | 0.643
PSQRRNVYYYS [PTEN_Y174_Y174N] | 0.9
EQKKFYNAMKK [SCN5A_Y1495_YF] | 0.373
FDGGCYEQLFV [MC4R_Y41_S36Y_YF] | 2.46
QFQEKYKQVEQ [HCN4_Y531_YF] | 0.679
APAHKYHGGGG [HBD_Y146_L142P] | 0.537
GRRNTYFASIA [ACADM_Y352_YF] | 0.615
TVFSDYLHPQY [CCPG1_Y569] | 0.498
KKCTRYIDCDR [ASPA_Y64_L69R] | 0.427
TILEHYRRTHC [MYBPC3_Y1119_V1115I] | 0.505
LSVEIYDRREF [ITGB7_Y753_YF] | 1.01
DEGVNYFMSKG [FBXO8_Y156] | 0.388
LLSISYVGCSL [ADGRD1_Y571_S567L] | 0.69
